Reference: patent US6821739B2, “Methods of diagnosing and treating Crohn's disease using Pseudomonas antigens” (The Regents of the University of California, priority 2000, dated 2004)

System: CD4+ T cells from C57BL/6J mice
Type: cell-based, mouse
Conditions: 72 hours

B1: PFTR: P. fluorescens polypeptide of 198 amino acids (SEQ ID NO: 5), similar to bacterial ferrodoxins (protein)
chain: MRTMVDSGQLTDPESARGKLLQTAAHLFRNKGFERTTVRDLASAVGIQSGSIFHHFKSKDEILRAVMEETTHYNTAMMRASLEEASTVRERVLALIRCKLQSIMGGSGEAMAVLVYEWRSLSAEGQAHVLALRDVYEQIWLQVLGEAKAAGYIRGDVFITRRFLTGALSWTTTWFRAQGSLTLEELAEEALLMVLKSD
modifications: P. fluorescens
B1 was tested, and the “stimulation of CD4+ T cell proliferation” value was “strongly stimulated”.
